The text below walks through data of article PMC11574045, “A cofactor-induced repressive type of transcription factor condensation can be induced by synthetic peptides to suppress tumorigenesis” (The EMBO Journal, 2024).

This assay concerns HEK293FT cells transfected with TF library. Description: Screening of TF condensates based on fluorescent puncta. The note with it: Figure 1B numerical data; TF library screen, one value per transcriptional factor. It is filed as cell-based. Put shortly: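 HEK293FT, PEI transfection of TF library, 60 h; ±glucose 12 h; 4% PFA fix, 0.05% Triton X-100 permeabilization, 5% BSA block; anti-Flag/anti-GAL4 overnight at 4 °C, Alexa 488 secondary 1 h; high-content imaging, 50 fields/well.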

B1: TCF15 (protein, UniProt Q12870 1-199, looked up)
Transcription factor 15: MAFALLRPVGAHVLYPDVRLLSEDEENRSESDASDQSFGCCEGPEAARRGPGPGGGRRAGGGGGAGPVVVVRQRQAANARERDRTQSVNTAFTALRTLIPTEPVDRKLSKIETVRLASSYIAHLANVLLLGDSADDGQPCFRAAGSAKGAVPAAADGGRQPRSICTFCLSNQRKGGGRRDLGGSCLKVRGVAPLRGPRR
B1: the “Z score of condensed fraction” value came to 0.7138.

B2: TGIF2LY (protein, UniProt Q8IUE0 1-185, looked up)
Homeobox protein TGIF2LY: MEAAADGPAETQSPVEKDSPAKTQSPAQDTSIMSRNNADTGRVLALPEHKKKRKGNLPAESVKILRDWMYKHRFKAYPSEEEKQMLSEKTNLSLLRISNWFINARRRILPDMLQQRRNDPIIGHKTGKDAHATHLQSTEASVPAKSGPVVQTMYKACPCGPCQRARCQERSNQIRSRPLARSSPE
B2: the “Z score of condensed fraction” value is listed as 1.271.

B3: TCEB2 (protein, UniProt Q15370 1-118, looked up)
Elongin-B: MDVFLMIRRHKTTIFTDAKESSTVFELKRIVEGILKRPPDEQRLYKDDQLLDDGKTLGECGFTSQTARPQAPATVGLAFRADDTFEALCIEPFSSPPELPDVMKPQDSGSSANEQAVQ
As to B3, the “Z score of condensed fraction” value is on record as -0.4277.

B4: TCF25 (protein, UniProt Q9BQ70 1-676, looked up)
Ribosome quality control …: MSRRALRRLRGEQRGQEPLGPGALHFDLRDDDDAEEEGPKRELGVRRPGGAGKEGVRVNNRFELINIDDLEDDPVVNGERSGCALTDAVAPGNKGRGQRGNTESKTDGDDTETVPSEQSHASGKLRKKKKKQKNKKSSTGEASENGLEDIDRILERIEDSTGLNRPGPAPLSSRKHVLYVEHRHLNPDTELKRYFGARAILGEQRPRQRQRVYPKCTWLTTPKSTWPRYSKPGLSMRLLESKKGLSFFAFEHSEEYQQAQHKFLVAVESMEPNNIVVLLQTSPYHVDSLLQLSDACRFQEDQEMARDLVERALYSMECAFHPLFSLTSGACRLDYRRPENRSFYLALYKQMSFLEKRGCPRTALEYCKLILSLEPDEDPLCMLLLIDHLALRARNYEYLIRLFQEWEAHRNLSQLPNFAFSVPLAYFLLSQQTDLPECEQSSARQKASLLIQQALTMFPGVLLPLLESCSVRPDASVSSHRFFGPNAEISQPPALSQLVNLYLGRSHFLWKEPATMSWLEENVHEVLQAVDAGDPAVEACENRRKVLYQRAPRNIHRHVILSEIKEAVAALPPDVTTQSVMGFDPLPPSDTIYSYVRPERLSPISHGNTIALFFRSLLPNYTMEGERPEEGVAGGLNRNQGLNRLMLAVRDMMANFHLNDLEAPHEDDAEGEGEWD
As to B4, the “Z score of condensed fraction” value was determined as 2.145.

B5: TFDP3 (protein, UniProt Q5H9I0 1-405, looked up)
Transcription factor Dp …: MAKYVSLTEANEELKVLMDENQTSRPVAVHTSTVNPLGKQLLPKTFGQSSVNIDQQVVIGMPQRPAASNIPVVGSPNPPSTHFASQNQHSYSSPPWAGQHNRKGEKNGMGLCRLSMKVWETVQRKGTTSCQEVVGELVAKFRAASNHASPNESAYDVKNIKRRTYDALNVLMAMNIISREKKKIKWIGLTTNSAQNCQNLRVERQKRLERIKQKQSELQQLILQQIAFKNLVLRNQYVEEQVSQRPLPNSVIHVPFIIISSSKKTVINCSISDDKSEYLFKFNSSFEIHDDTEVLMWMGMTFGLESGSCSAEDLKMARNLVPKALEPYVTEMAQGTFGGVFTTAGSRSNGTWLSASDLTNIAIGMLATSSGGSQYSGSRVETPAVEEEEEEDNNDDDLSENDEDD
For B5, the “Z score of condensed fraction” value is on record as 0.6635.

B6: BLZF1 (protein, UniProt Q9H2G9 1-400, looked up)
Golgin-45: MTTKNLETKVTVTSSPIRGAGDGMETEEPPKSVEVTSGVQSRKHHSLQSPWKKAVPSESPGVLQLGKMLTEKAMEVKAVRILVPKAAITHDIPNKNTKVKSLGHHKGEFLGQSEGVIEPNKELSEVKNVLEKLKNSERRLLQDKEGLSNQLRVQTEVNRELKKLLVASVGDDLQYHFERLAREKNQLILENEALGRNTAQLSEQLERMSIQCDVWRSKFLASRVMADELTNSRAALQRQNRDAHGAIQDLLSEREQFRQEMIATQKLLEELLVSLQWGREQTYSPSVQPHSTAELALTNHKLAKAVNSHLLGNVGINNQKKIPSTVEFCSTPAEKMAETVLRILDPVTCKESSPDNPFFESSPTTLLATKKNIGRFHPYTRYENITFNCCNHCRGELIAL
Turning to B6, the “Z score of condensed fraction” value is -1.161.

B7: TERF2 (protein, UniProt O35144 1-541, looked up)
Telomeric repeat-binding …: MAAGAGTAGPASGPGVVRDPMASQPRKRPSREGGEGGEGERRSNTMAGGGGSSDSSGRAASRRASRSGGRARRGRHEPGLGGAAERGAGEARLEEAVNRWVLKFYFHEALRAFRSSRYRDFRQIRDIMQALLVRPLGKEHTVSRLLRVMQCLSRIEEGENLDCSFDMEAELTPLESAINVLEMIKTEFTLTDSMVESSRKLVKEAAVIICIKNKEFEKASKILKKYMSKDPTTQKLRTDLLNIIREKNLAHPVIQNFSYEVFQQKMLRFLESHLDDTEPYLLTMAKKALKSESAASSTMREEKHPEPVEKPLREPPSRQPQNPPATIGIRTLKAAFKALSTAQDSEAAFAKLDQKDLVLANLASPSSPAHKHKRPRKDEHESAAPAEGEGGSDRQPRNSPMTISRLLLEEDSQSTEPSPGLNSSHKAMSASKPRALNQPHPGEKKPKASKDKWNSPNGLEEKEVWLEEDQLFEVQAPGEDRSSSLTRKQKWTIEESEWVKDGVRKYGEGNWAAISKSYPFVNRTAVMIKDRWRTMKKLGMN
As for B7, the “Z score of condensed fraction” value came out at 0.4642.

B8: TCF21 (protein, UniProt O43680 1-179, looked up)
Transcription factor 21: MSTGSLSDVEDLQEVEMLECDGLKMDSNKEFVTSNESTEESSNCENGSPQKGRGGLGKRRKAPTKKSPLSGVSQEGKQVQRNAANARERARMRVLSKAFSRLKTTLPWVPPDTKLSKLDTLRLASSYIAHLRQILANDKYENGYIHPVNLTWPFMVAGKPESDLKEVVTASRLCGTTAS
On to B8, for which the “Z score of condensed fraction” value came out at 0.06751.

B9: TBX6 (protein, UniProt O95947 1-436, looked up)
T-box transcription factor …: MYHPRELYPSLGAGYRLGPAQPGADSSFPPALAEGYRYPELDTPKLDCFLSGMEAAPRTLAAHPPLPLLPPAMGTEPAPSAPEALHSLPGVSLSLENRELWKEFSSVGTEMIITKAGRRMFPACRVSVTGLDPEARYLFLLDVIPVDGARYRWQGRRWEPSGKAEPRLPDRVYIHPDSPATGAHWMRQPVSFHRVKLTNSTLDPHGHLILHSMHKYQPRIHLVRAAQLCSQHWGGMASFRFPETTFISVTAYQNPQITQLKIAANPFAKGFRENGRNCKRERDARVKRKLRGPEPAATEAYGSGDTPGGPCDSTLGGDIRESDPEQAPAPGEATAAPAPLCGGPSAEAYLLHPAAFHGAPSHLPTRSPSFPEAPDSGRSAPYSAAFLELPHGSGGSGYPAAPPAVPFAPHFLQGGPFPLPYTAPGGYLDVGSKPMY
With B9, the “Z score of condensed fraction” value is -0.7283.

B10: THAP10 (protein, UniProt Q9P2Z0 1-257, looked up)
THAP domain-containing …: MPARCVAAHCGNTTKSGKSLFRFPKDRAVRLLWDRFVRGCRADWYGGNDRSVICSDHFAPACFDVSSVIQKNLRFSQRLRLVAGAVPTLHRVPAPAPKRGEEGDQAGRLDTRGELQAARHSEAAPGPVSCTRPRAGKQAAASQITCENELVQTQPHADNPSNTVTSVPTHCEEGPVHKSTQISLKRPRHRSVGIQAKVKAFGKRLCNATTQTEELWSRTSSLFDIYSSDSETDTDWDIKSEQSDLSYMAVQVKEETC
Consider B10, for which the “Z score of condensed fraction” value turned out to be 1.236.

B11: THAP1 (protein, UniProt Q9NVV9 1-213, looked up)
THAP domain-containing …: MVQSCSAYGCKNRYDKDKPVSFHKFPLTRPSLCKEWEAAVRRKNFKPTKYSSICSEHFTPDCFKRECNNKLLKENAVPTIFLCTEPHDKKEDLLEPQEQLPPPPLPPPVSQVDAAIGLLMPPLQTPVNLSVFCDHNYTVEDTMHQRKRIHQLEQQVEKLRKKLKTAQQRCRRQERQLEKLKEVVHFQKEKDDVSERGYVILPNDYFEIVEVPA
With B11, the “Z score of condensed fraction” value was -0.6542.

B12: TCFL5 (protein, UniProt Q9UL49 1-500, looked up)
Transcription factor-like 5 …: MSGPGPREPPPEAGAAGGEAAVEGAGGGDAALGEPGLSFTTTDLSLVEMTEVEYTQLQHILCSHMEAAADGELETRLNSALLAAAGPGAGAGGFAAGGQGGAAPVYPVLCPSALAADAPCLGHIDFQELRMMLLSEAGAAEKTSGGGDGARARADGAAKEGAGAAAAAAGPDGAPEARAKPAVRVRLEDRFNSIPAEPPPAPRGPEPPEPGGALNNLVTLIRHPSELMNVPLQQQNKCTALVKNKTAATTTALQFTYPLFTTNACSTSGNSNLSQTQSSSNSCSVLEAAKHQDIGLPRAFSFCYQQEIESTKQTLGSRNKVLPEQVWIKVGEAALCKQALKRNRSRMRQLDTNVERRALGEIQNVGEGATATQGAWQSSESSQANLGEQAQSGPQGGRSQRRERHNRMERDRRRRIRICCDELNLLVPFCNAETDKATTLQWTTAFLKYIQERHGDSLKKEFESVFCGKTGRRLKLTRPDSLVTCPAQGSLQSSPSMEIK
With B12, the “Z score of condensed fraction” value was -0.869.

B13: TCF24 (protein, UniProt Q7RTU0 1-167, looked up)
Transcription factor 24: MDRGRPAGSPLSASAEPAPLAAAIRDSRPGRTGPGPAGPGGGSRSGSGRPAAANAARERSRVQTLRHAFLELQRTLPSVPPDTKLSKLDVLLLATTYIAHLTRSLQDDAEAPADAGLGALRGDGYLHPVKKWPMRSRLYIGATGQFLKHSVSGEKTNHDNTPTDSQP
For the molecule B13, the “Z score of condensed fraction” value is -0.9879.

B14: TFEC (protein, UniProt O14948 1-347, looked up)
Transcription factor EC: MTLDHQIINPTLKWSQPAVPSGGPLVQHAHTTLDSDAGLTENPLTKLLAIGKEDDNAQWHMEDVIEDIIGMESSFKEEGADSPLLMQRTLSGSILDVYSGEQGISPINMGLTSASCPSSLPMKREITETDTRALAKERQKKDNHNLIERRRRYNINYRIKELGTLIPKSNDPDMRWNKGTILKASVEYIKWLQKEQQRARELEHRQKKLEQANRRLLLRIQELEIQARTHGLPTLASLGTVDLGAHVTKQQSHPEQNSVDYCQQLTVSQGPSPELCDQAIAFSDPLSYFTDLSFSAALKEEQRLDGMLLDDTISPFGTDPLLSATSPAVSKESSRRSSFSSDDGDEL
For B14, the “Z score of condensed fraction” value is 1.616.
